{"source": "patent US20050058643A1", "about": "(APITOPE TECHNOLOGY BRISTOL, published 2005)", "biological_target": "T1, HLA:DR2 (DRB1*1501) MHC Class II molecule (human)", "T1 construct": "whole, on cells", "test": "conclusion drawn from presentation and tolerance experiments (fixed HLA-DR2+ APC; HLA:DR2 transgenic mice); no direct binding assay"}
{"binder": "GFKGVDAQGTLSKIF (also called APITOPE-MS-6)", "note": "[MBP peptide 140-154]", "values": [{"measurement": "binding result", "result": "binds"}]}
